In publication doi:10.1101/308353 one finds Pearson's correlation of co-localization data, which are given here for 1 substance.

This assay concerns the target GFP-βRat CaMKII holoenzyme (rat) (UniProt P08413). Put plainly: single molecule TIRF microscopy.
Sequence of UniProt P08413 (P08413 whole entry): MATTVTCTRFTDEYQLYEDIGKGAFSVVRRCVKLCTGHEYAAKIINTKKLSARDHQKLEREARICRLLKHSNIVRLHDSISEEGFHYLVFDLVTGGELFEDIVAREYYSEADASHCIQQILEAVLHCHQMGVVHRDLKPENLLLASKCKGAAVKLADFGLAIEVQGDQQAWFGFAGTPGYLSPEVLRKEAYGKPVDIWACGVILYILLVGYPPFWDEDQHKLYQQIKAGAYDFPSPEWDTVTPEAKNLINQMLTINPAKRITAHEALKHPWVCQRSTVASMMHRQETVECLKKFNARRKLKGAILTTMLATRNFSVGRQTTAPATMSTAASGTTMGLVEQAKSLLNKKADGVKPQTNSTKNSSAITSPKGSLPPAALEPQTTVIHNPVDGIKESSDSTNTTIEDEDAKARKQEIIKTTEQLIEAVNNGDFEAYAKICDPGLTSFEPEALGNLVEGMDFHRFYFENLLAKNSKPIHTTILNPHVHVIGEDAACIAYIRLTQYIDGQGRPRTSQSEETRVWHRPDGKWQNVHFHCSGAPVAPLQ

“Cy3 conjugated G-actin (from UniProt P68135 1-377) (natural protein)” showed a Pearson's correlation of co-localization of 0.33.
